Starred links: 1 amine or outer side, 2 acyl side, 3 side chain; linkers in the order of their positions; H or OH if unused. Non-standard residues stand in square brackets, D forms with d. Groups on a side chain read outwards from the residue. No end group written: not given here. *: point of attachment. C20 diacid = O=C(O)CCCCCCCCCCCCCCCCCCC(=O)*; C18 diacid = O=C(O)CCCCCCCCCCCCCCCCC(=O)*; γGlu = O=C(O)[C@H](CCC(=O)[*:2])N[*:1]; εLys = N[C@@H](CCCCN[*:1])C(=O)[*:2]; AEEA = NCCOCCOCC(=O)O; Aib = CC(C)(N)C(=O)O
B1: Compound 284 (peptide)
peptide: Y[Aib]EGTFTSDYSI[Aib]LEKQAQ[Aib]EFVEWLIK([AEEA-AEEA-γGlu-γGlu-γGlu-C18 diacid])GGPSEGASLRHYYNWLTRQRY-NH2
modifications: also: TFA salt
B2: Compound 294 (peptide)
peptide: Y[Aib]EGTFTSDYSI[Aib]LEKQAQ[Aib]AFVEWLIK([γGlu-γGlu-γGlu-γGlu-C18 diacid])GGPSEGASLRHYYNWLTRQRY-NH2
modifications: also: TFA salt
B3: Compound 282 (peptide)
peptide: Y[Aib]EGTFTSDYSI[Aib]LEKQAQ[Aib]EFVEWLIK([AEEA-AEEA-γGlu-C18 diacid])GGPSEGASLRHYYNWLTRQRY-NH2
modifications: also: TFA salt
B4: Compound 290 (peptide)
peptide: Y[Aib]EGTFTSDYSI[Aib]LEKQAQ[Aib]AFVEWLIK([εLys-γGlu-Glu-γGlu-γGlu-γGlu-C20 diacid])GGPSEGASLRHYYNWLTRQRY-NH2
modifications: also: TFA salt
B5: Compound 291 (peptide)
peptide: Y[Aib]EGTFTSDYSI[Aib]LEKQAQ[Aib]AFVEWLIK([Glu-Glu-Glu-Glu-C18 diacid])GGPSEGASLRHYYNWLTRQRY-NH2
modifications: also: TFA salt
B6: Compound 288 (peptide)
peptide: Y[Aib]EGTFTSDYSI[Aib]LEKQAQ[Aib]AFVEWLIK([εLys-γGlu-γGlu-γGlu-γGlu-γGlu-γGlu-γGlu-C20 diacid])GGPSEGASLRHYYNWLTRQRY-NH2
modifications: also: TFA salt
B7: Compound 286 (peptide)
peptide: Y[Aib]EGTFTSDYSI[Aib]LEKQAQ[Aib]AFVEWLIKGGPSEGASLRHYYNWLTRQRY-NH2
modifications: not fully specified (residue 28); also: TFA salt
B8: Compound 281 (peptide)
peptide: Y[Aib]EGTFTSDYSI[Aib]LEKQAQ[Aib]AFVQWLIK([Glu-Glu-Glu-Glu-C18 diacid])GGPSEGASLRHYYNWLTRQRY-NH2
modifications: also: TFA salt
B9: Compound 287 (peptide)
peptide: Y[Aib]EGTFTSDYSI[Aib]LEKQAQ[Aib]AFVEWLIK([AEEA-AEEA-γGlu-γGlu-γGlu-γGlu-C20 diacid])GGPSEGASLRHYYNWLTRQRY-NH2
modifications: also: TFA salt
B10: Compound 296 (peptide)
peptide: Y[Aib]EGTFTSDYSI[Aib]LEKQAQ[Aib]AFVEWLIKGGPSEGASLRHYYNWLTRQRY-NH2
modifications: not fully specified (residue 28); also: TFA salt

What follows are binders tested against human GLP-1 receptor (human, UniProt P43220 24-463) (assay: cell-based or functional assay).

| Binder | EC50 hGLP1R 0.5% hP (CreLuc) [nM] | EC50 hGLP1R 100% hP (CreLuc) [nM] |
| --- | --- | --- |
| B1 | 0.51 | 12.6 |
| B2 | 0.08 | 3.2 |
| B3 | 0.51 | 24.6 |
| B4 | 0.13 | 2.87 |
| B5 | 0.1 | 2.35 |
| B6 | 0.17 | 3.21 |
| B7 | 0.27 | 5.97 |
| B8 | 0.07 | 1.78 |
| B9 | 0.27 | 6.34 |
| B10 | 0.11 | 3.5 |

These binders were tested against T1, human GIP receptor (human, UniProt P48546 22-466) (assay: cell-based or functional assay).
T1 sequence (looked up): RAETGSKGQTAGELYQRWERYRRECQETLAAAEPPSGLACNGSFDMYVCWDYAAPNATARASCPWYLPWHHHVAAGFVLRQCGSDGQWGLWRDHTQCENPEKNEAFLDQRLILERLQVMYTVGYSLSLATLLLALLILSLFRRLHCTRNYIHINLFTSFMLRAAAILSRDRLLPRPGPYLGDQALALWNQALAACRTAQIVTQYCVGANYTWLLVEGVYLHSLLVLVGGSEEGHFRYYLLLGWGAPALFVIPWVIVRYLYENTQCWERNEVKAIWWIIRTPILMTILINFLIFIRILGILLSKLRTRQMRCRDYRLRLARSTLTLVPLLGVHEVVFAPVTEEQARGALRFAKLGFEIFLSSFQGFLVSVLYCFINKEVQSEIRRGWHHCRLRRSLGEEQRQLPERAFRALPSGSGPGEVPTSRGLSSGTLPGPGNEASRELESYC

| Binder | EC50 hGIPR 0.5% hP (CreLuc) [nM] | EC50 hGIPR 100% hP (CreLuc) [nM] |
| --- | --- | --- |
| B1 | 0.33 | 0.8 |
| B2 | 0.21 | 0.89 |
| B3 | 0.17 | 1.03 |
| B4 | 0.89 | 1.18 |
| B5 | 0.18 | 0.7 |
| B6 | 0.51 | 2.43 |
| B7 | 0.42 | 2.03 |
| B8 | 0.28 | 0.69 |
| B9 | 0.34 | 2.42 |
| B10 | 1.39 | 1.11 |

The binders below were run against T2, human neuropeptide Y2 receptor (human, UniProt P49146 1-381) (assay: cell-based or functional assay).
T2 sequence (looked up): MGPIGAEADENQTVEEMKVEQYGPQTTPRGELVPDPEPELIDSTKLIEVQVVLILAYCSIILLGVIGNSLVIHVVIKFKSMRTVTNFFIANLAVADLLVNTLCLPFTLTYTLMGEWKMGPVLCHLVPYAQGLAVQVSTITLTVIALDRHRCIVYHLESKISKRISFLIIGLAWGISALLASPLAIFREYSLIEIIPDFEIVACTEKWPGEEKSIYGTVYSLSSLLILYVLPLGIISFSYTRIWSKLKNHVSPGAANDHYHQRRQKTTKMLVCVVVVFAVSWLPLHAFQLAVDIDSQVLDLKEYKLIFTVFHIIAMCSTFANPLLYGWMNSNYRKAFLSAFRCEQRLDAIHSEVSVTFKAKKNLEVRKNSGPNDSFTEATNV

| Binder | EC50 hNPY2R 0.5% hP (CreLuc) [nM] | EC50 hNPY2R 100% hP (CreLuc) [nM] |
| --- | --- | --- |
| B1 | 18.8 | 44.7 |
| B2 | 14.2 | 55.2 |
| B3 | 17.3 | 71.4 |
| B4 | 9.68 | 46.3 |
| B5 | 14.3 | 55.3 |
| B6 | 14.3 | 36.8 |
| B7 | 15.7 | 43.4 |
| B8 | 23 | 169 |
| B9 | 13.3 | 45.9 |
| B10 | 14.1 | 56.5 |

Reference: patent US20240247080A1, “GLP1/GIP/NPY2 RECEPTOR TRIPLE AGONISTS” (Boehringer Ingelheim International GmbH, priority 2022, published 2024)
